{
  "source": "paper PMC5050587",
  "about": "“Enzymatic fine-tuning for 2-(6-hydroxynaphthyl) β-D-xylopyranoside synthesis catalyzed by the recombinant β-xylosidase BxTW1 from Talaromyces amestolkiae” (Microbial Cell Factories, 2016)",
  "key": {"[1]": {"target": "T1, β-xylosidase BxTW1 (rBxTW1) (Talaromyces amestolkiae, UniProt A0A0H3W535)", "T1 construct": "mature BxTW1 without its signal peptide, expressed in Pichia pastoris GS115", "T1 sequence (A0A0H3W535 22-797)": "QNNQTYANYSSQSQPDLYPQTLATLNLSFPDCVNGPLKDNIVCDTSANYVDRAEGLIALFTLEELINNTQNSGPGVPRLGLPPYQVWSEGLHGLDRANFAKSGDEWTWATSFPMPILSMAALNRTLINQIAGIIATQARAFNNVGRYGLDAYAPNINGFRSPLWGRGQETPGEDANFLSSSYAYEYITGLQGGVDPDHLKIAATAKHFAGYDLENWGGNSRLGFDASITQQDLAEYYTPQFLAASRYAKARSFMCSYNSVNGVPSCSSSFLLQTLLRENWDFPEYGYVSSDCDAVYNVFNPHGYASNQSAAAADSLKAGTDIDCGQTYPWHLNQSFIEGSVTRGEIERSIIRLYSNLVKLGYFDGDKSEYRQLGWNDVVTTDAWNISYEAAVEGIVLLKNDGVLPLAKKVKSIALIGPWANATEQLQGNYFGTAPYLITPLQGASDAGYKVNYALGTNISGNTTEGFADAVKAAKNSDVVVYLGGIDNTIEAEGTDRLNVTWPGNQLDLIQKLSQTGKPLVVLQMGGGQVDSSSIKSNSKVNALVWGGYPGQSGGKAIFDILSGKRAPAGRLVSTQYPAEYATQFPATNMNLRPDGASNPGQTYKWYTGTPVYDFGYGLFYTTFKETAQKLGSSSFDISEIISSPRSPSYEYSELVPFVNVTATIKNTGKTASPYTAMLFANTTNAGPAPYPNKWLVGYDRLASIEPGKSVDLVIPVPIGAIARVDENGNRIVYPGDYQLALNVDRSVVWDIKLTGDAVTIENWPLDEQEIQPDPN", "assay": "competitive product inhibition of pNPX hydrolysis by purified enzyme", "type": "biochemical"}, "[2]": {"target": "recombinant β-xylosidase BxTW1 from Talaromyces amestolkiae (Talaromyces amestolkiae)", "assay": "SEC; Superose 12 HR 10/30 column, molecular mass in native conditions, performed as described previously [20]"}, "[3]": {"substrate": "O=[N+]([O-])c1ccc(O[C@@H]2OC[C@@H](O)[C@H](O)[C@H]2O)cc1", "assay": "Michaelis-Menten kinetics of purified enzyme (Km)", "type": "biochemical, Talaromyces amestolkiae"}, "[4]": {"substrate": "OC1OC[C@@H](O[C@@H]2OC[C@@H](O[C@@H]3OC[C@@H](O[C@@H]4OC[C@@H](O[C@@H]5OC[C@@H](O[C@@H]6OC[C@@H](O)[C@H](O)[C@H]6O)[C@H](O)[C@H]5O)[C@H](O)[C@H]4O)[C@H](O)[C@H]3O)[C@H](O)[C@H]2O)[C@H](O)[C@H]1O", "assay": "Michaelis-Menten kinetics of purified enzyme (Km)", "type": "biochemical, Talaromyces amestolkiae"}, "[5]": {"substrate": "O=[N+]([O-])c1ccc(O[C@@H]2O[C@@H](CO)[C@H](O)[C@H]2O)cc1", "assay": "Michaelis-Menten kinetics of purified enzyme (Km)", "type": "biochemical, Talaromyces amestolkiae"}, "[6]": {"substrate": "OC1OC[C@@H](O[C@@H]2OC[C@@H](O[C@@H]3OC[C@@H](O[C@@H]4OC[C@@H](O[C@@H]5OC[C@@H](O)[C@H](O)[C@H]5O)[C@H](O)[C@H]4O)[C@H](O)[C@H]3O)[C@H](O)[C@H]2O)[C@H](O)[C@H]1O", "assay": "Michaelis-Menten kinetics of purified enzyme (Km)", "type": "biochemical, Talaromyces amestolkiae"}, "[7]": {"substrate": "OC1OC[C@@H](O[C@@H]2OC[C@@H](O)[C@H](O)[C@H]2O)[C@H](O)[C@H]1O", "assay": "Michaelis-Menten kinetics of purified enzyme (Km)", "type": "biochemical, Talaromyces amestolkiae"}, "[8]": {"substrate": "OC1OC[C@@H](O[C@@H]2OC[C@@H](O[C@@H]3OC[C@@H](O[C@@H]4OC[C@@H](O)[C@H](O)[C@H]4O)[C@H](O)[C@H]3O)[C@H](O)[C@H]2O)[C@H](O)[C@H]1O", "assay": "Michaelis-Menten kinetics of purified enzyme (Km)", "type": "biochemical, Talaromyces amestolkiae"}, "[9]": {"substrate": "OC1OC[C@@H](O[C@@H]2OC[C@@H](O[C@@H]3OC[C@@H](O)[C@H](O)[C@H]3O)[C@H](O)[C@H]2O)[C@H](O)[C@H]1O", "assay": "Michaelis-Menten kinetics of purified enzyme (Km)", "type": "biochemical, Talaromyces amestolkiae"}, "[10]": {"substrate": "O=[N+]([O-])c1ccc(O[C@@H]2OC[C@H](O)[C@H](O)[C@H]2O)cc1", "assay": "Michaelis-Menten kinetics of purified enzyme (Km)", "type": "biochemical, Talaromyces amestolkiae"}},
  "data": [
    {"molecule": "OC1OC[C@@H](O)[C@H](O)[C@H]1O", "note": "(stereo partly shown) [xylose]", "values": [
      {"measurement": "Ki", "setting": "[1]", "result": "1700 ± 300", "unit": "µM"}
    ]},
    {"molecule": "recombinant β-xylosidase BxTW1 from Talaromyces amestolkiae (enzyme)", "values": [
      {"measurement": "stoichiometry N", "setting": "[2]", "result": 2}
    ]},
    {"molecule": "β-xylosidase BxTW1 (rBxTW1) (Talaromyces amestolkiae) (protein, mature BxTW1 without its signal peptide, expressed in Pichia pastoris GS115) QNNQTYANYSSQSQPDLYPQTLATLNLSFPDCVNGPLKDNIVCDTSANYVDRAEGLIALFTLEELINNTQNSGPGVPRLGLPPYQVWSEGLHGLDRANFAKSGDEWTWATSFPMPILSMAALNRTLINQIAGIIATQARAFNNVGRYGLDAYAPNINGFRSPLWGRGQETPGEDANFLSSSYAYEYITGLQGGVDPDHLKIAATAKHFAGYDLENWGGNSRLGFDASITQQDLAEYYTPQFLAASRYAKARSFMCSYNSVNGVPSCSSSFLLQTLLRENWDFPEYGYVSSDCDAVYNVFNPHGYASNQSAAAADSLKAGTDIDCGQTYPWHLNQSFIEGSVTRGEIERSIIRLYSNLVKLGYFDGDKSEYRQLGWNDVVTTDAWNISYEAAVEGIVLLKNDGVLPLAKKVKSIALIGPWANATEQLQGNYFGTAPYLITPLQGASDAGYKVNYALGTNISGNTTEGFADAVKAAKNSDVVVYLGGIDNTIEAEGTDRLNVTWPGNQLDLIQKLSQTGKPLVVLQMGGGQVDSSSIKSNSKVNALVWGGYPGQSGGKAIFDILSGKRAPAGRLVSTQYPAEYATQFPATNMNLRPDGASNPGQTYKWYTGTPVYDFGYGLFYTTFKETAQKLGSSSFDISEIISSPRSPSYEYSELVPFVNVTATIKNTGKTASPYTAMLFANTTNAGPAPYPNKWLVGYDRLASIEPGKSVDLVIPVPIGAIARVDENGNRIVYPGDYQLALNVDRSVVWDIKLTGDAVTIENWPLDEQEIQPDPN", "values": [
      {"measurement": "Km", "setting": "[3]", "result": "200 ± 10", "unit": "µM"},
      {"measurement": "Vmax", "setting": "[3]", "result": 20.8, "unit": "µmol/min/mg"},
      {"measurement": "kcat", "setting": "[3]", "result": 69.3, "unit": "s⁻¹"},
      {"measurement": "kcat/Km", "setting": "[3]", "result": 336000, "unit": "M⁻¹ s⁻¹"},
      {"measurement": "Km", "setting": "[4]", "result": "210 ± 20", "unit": "µM"},
      {"measurement": "Vmax", "setting": "[4]", "result": 4.27, "unit": "µmol/min/mg"},
      {"measurement": "kcat", "setting": "[4]", "result": 14.2, "unit": "s⁻¹"},
      {"measurement": "kcat/Km", "setting": "[4]", "result": 69000, "unit": "M⁻¹ s⁻¹"},
      {"measurement": "Km", "setting": "[5]", "result": "4300 ± 300", "unit": "µM"},
      {"measurement": "Vmax", "setting": "[5]", "result": 14.9, "unit": "µmol/min/mg"},
      {"measurement": "kcat", "setting": "[5]", "result": 49.8, "unit": "s⁻¹"},
      {"measurement": "kcat/Km", "setting": "[5]", "result": 12000, "unit": "M⁻¹ s⁻¹"},
      {"measurement": "Km", "setting": "[6]", "result": "220 ± 10", "unit": "µM"},
      {"measurement": "Vmax", "setting": "[6]", "result": 4.48, "unit": "µmol/min/mg"},
      {"measurement": "kcat", "setting": "[6]", "result": 14.9, "unit": "s⁻¹"},
      {"measurement": "kcat/Km", "setting": "[6]", "result": 68000, "unit": "M⁻¹ s⁻¹"},
      {"measurement": "Km", "setting": "[7]", "result": "510 ± 30", "unit": "µM"},
      {"measurement": "Vmax", "setting": "[7]", "result": 26.4, "unit": "µmol/min/mg"},
      {"measurement": "kcat", "setting": "[7]", "result": 87.9, "unit": "s⁻¹"},
      {"measurement": "kcat/Km", "setting": "[7]", "result": 170000, "unit": "M⁻¹ s⁻¹"},
      {"measurement": "Km", "setting": "[8]", "result": "200 ± 10", "unit": "µM"},
      {"measurement": "Vmax", "setting": "[8]", "result": 6.34, "unit": "µmol/min/mg"},
      {"measurement": "kcat", "setting": "[8]", "result": 21.1, "unit": "s⁻¹"},
      {"measurement": "kcat/Km", "setting": "[8]", "result": 100000, "unit": "M⁻¹ s⁻¹"},
      {"measurement": "Km", "setting": "[9]", "result": "190 ± 10", "unit": "µM"},
      {"measurement": "Vmax", "setting": "[9]", "result": 9, "unit": "µmol/min/mg"},
      {"measurement": "kcat", "setting": "[9]", "result": 30, "unit": "s⁻¹"},
      {"measurement": "kcat/Km", "setting": "[9]", "result": 160000, "unit": "M⁻¹ s⁻¹"},
      {"measurement": "Km", "setting": "[10]", "result": "1600 ± 100", "unit": "µM"},
      {"measurement": "Vmax", "setting": "[10]", "result": 8.3, "unit": "µmol/min/mg"},
      {"measurement": "kcat", "setting": "[10]", "result": 28, "unit": "s⁻¹"},
      {"measurement": "kcat/Km", "setting": "[10]", "result": 17000, "unit": "M⁻¹ s⁻¹"}
    ]}
  ]
}
